From publication PMC11748629, “Unidirectional MCM translocation away from ORC drives origin licensing” (Nature Communications, 2025) come the findings set out here.

The labels stand for the following.
B2: Orc4 (natural protein, Saccharomyces cerevisiae)
chain: MTISEARLSPQVNLLPIKRHSNEEVEETAAILKKRTIDNEKCKDSDPGFGSLQRRLLQQLYGTLPTDEKIIFTYLQDCQQEIDRIIKQSIIQKESHSVILVGPRQSYKTYLLDYELSLLQQSYKEQFITIRLNGFIHSEQTAINGIATQLEQQLQKIHGSEEKIDDTSLETISSGSLTEVFEKILLLLDSTTKTRNEDSGEVDRESITKITVVFIFDEIDTFAGPVRQTLLYNLFDMVEHSRVPVCIFGCTTKLNILEYLEKRVKSRFSQRVIYMPQIQNLDDMVDAVRNLLTVRSEISPWVSQWNETLEKELSDPRSNLNRHIRMNFETFRSLPTLKNSIIPLVATSKNFGSLCTAIKSCSFLDIYNKNQLSNNLTGRLQSLSDLELAILISAARVALRAKDGSFNFNLAYAEYEKMIKAINSRIPTVAPTTNVGTGQSTFSIDNTIKLWLKKDVKNVWENLVQLDFFTEKSAVGLRDNATAAFYASNYQFQGTMIPFDLRSYQMQIILQELRRIIPKSNMYYSWTQL
notes: Orc4, S. cerevisiae; Subunit of m1, written alone for the contacts seen in the structures; also called Orc4 subunit of ORC; source: S. cerevisiae strain ySD-ORC, purified as a subunit of ORC

Common to all, as to assay: cryo-EM structure; OCCM^Mcm2RA: 30 nM MH-ARS1-MH DNA, 60 nM ORC, 90 nM Cdc6, 60 nM MCM-Cdt1 (Mcm2 R676A), 3 mM ATP; 25 mM HEPES pH 7.6, 100 mM potassium chloride, 10 mM magnesium acetate, 1 mM DTT; 30 °C, 30 min; 3.3 Å consensus, 3.2 Å local refinements
Holding throughout (conditions): both partners purified

In one assay the target is T1, Orc3 (Saccharomyces cerevisiae, UniProt P54790 1-616).
T1 construct: Orc3, S. cerevisiae; Subunit of m1, written alone for the contacts seen in the structures; also called Orc3 subunit of ORC; source: S. cerevisiae strain ySD-ORC, purified as a subunit of ORC
T1 sequence: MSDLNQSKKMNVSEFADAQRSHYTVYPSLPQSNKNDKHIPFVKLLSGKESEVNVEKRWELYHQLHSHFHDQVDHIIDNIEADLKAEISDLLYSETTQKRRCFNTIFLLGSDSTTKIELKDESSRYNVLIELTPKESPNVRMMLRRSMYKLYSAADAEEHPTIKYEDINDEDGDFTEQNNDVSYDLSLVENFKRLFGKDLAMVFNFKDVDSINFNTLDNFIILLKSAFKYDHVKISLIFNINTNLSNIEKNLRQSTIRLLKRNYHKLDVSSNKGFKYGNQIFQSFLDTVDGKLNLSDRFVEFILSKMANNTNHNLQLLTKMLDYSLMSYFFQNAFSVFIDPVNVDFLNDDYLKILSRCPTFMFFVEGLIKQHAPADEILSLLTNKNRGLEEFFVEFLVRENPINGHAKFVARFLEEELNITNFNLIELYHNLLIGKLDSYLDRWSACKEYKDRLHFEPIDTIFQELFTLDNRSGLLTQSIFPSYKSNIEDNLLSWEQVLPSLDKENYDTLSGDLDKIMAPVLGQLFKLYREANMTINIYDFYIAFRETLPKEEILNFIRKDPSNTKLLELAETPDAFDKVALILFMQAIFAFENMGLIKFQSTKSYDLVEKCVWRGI

The assay “Orc4” deals with B2.
For a further assay, the target named is T2, Orc1 (Saccharomyces cerevisiae, UniProt P54784 1-914).
T2 construct: Orc1, S. cerevisiae; Subunit of m1, written alone for the contacts seen in the structures; also called Orc1 subunit of ORC; source: S. cerevisiae strain ySD-ORC, purified as a subunit of ORC
T2 sequence: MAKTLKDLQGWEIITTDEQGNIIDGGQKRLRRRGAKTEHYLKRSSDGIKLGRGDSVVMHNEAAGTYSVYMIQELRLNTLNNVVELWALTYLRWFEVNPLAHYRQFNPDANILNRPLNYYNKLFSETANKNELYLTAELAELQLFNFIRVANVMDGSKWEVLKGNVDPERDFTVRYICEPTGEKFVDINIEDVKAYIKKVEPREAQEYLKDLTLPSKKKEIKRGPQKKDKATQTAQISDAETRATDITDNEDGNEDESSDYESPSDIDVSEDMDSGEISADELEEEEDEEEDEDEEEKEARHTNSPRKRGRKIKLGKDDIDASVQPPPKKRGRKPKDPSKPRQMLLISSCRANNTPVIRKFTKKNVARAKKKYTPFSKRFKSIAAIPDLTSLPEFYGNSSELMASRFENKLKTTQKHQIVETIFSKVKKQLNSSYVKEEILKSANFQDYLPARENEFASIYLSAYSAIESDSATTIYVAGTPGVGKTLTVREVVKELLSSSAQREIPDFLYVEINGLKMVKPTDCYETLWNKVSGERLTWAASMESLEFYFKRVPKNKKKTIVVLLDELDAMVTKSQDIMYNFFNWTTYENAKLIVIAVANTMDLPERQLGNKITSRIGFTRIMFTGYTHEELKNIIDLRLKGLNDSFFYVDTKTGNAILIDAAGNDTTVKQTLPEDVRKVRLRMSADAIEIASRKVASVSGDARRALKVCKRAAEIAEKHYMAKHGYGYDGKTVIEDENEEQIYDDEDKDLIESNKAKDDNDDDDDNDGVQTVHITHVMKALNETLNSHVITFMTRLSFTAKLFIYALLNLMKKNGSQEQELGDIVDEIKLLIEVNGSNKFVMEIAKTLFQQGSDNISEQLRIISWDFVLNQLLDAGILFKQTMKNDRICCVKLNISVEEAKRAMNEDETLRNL

Assay [1] deals with T3, Origin Recognition Complex (ORC) (Saccharomyces cerevisiae, UniProt P54784 1-914; P32833 1-620; P54790 1-616; P54791 1-529; P50874 1-479; P38826 …).
T3 construct: Orc1, S. cerevisiae; Orc2, S. cerevisiae; Orc3, S. cerevisiae; Orc4, S. cerevisiae; Orc5, S. cerevisiae; Orc6, S. cerevisiae; also called ORC complex; copies: + + + + +
T3 sequence (P32833 whole entry, chain 2 of 2): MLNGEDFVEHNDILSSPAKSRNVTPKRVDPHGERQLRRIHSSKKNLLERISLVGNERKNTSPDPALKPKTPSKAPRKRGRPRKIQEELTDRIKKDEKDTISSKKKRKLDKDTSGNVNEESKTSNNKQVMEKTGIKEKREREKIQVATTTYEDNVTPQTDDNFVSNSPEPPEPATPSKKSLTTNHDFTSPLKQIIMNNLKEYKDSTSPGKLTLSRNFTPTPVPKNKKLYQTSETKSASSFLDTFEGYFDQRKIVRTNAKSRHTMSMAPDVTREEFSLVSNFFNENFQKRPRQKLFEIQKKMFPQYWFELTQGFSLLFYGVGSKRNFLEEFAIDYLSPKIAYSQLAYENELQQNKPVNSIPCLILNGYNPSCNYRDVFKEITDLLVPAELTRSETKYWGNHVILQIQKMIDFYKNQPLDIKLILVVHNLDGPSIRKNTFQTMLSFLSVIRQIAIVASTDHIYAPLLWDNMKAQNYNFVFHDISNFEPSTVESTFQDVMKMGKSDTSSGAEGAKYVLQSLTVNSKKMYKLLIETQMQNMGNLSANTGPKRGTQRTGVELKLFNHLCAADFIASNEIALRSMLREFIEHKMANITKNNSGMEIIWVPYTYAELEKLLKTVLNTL
T3 sequence (P38826 whole entry, chain 6 of 2): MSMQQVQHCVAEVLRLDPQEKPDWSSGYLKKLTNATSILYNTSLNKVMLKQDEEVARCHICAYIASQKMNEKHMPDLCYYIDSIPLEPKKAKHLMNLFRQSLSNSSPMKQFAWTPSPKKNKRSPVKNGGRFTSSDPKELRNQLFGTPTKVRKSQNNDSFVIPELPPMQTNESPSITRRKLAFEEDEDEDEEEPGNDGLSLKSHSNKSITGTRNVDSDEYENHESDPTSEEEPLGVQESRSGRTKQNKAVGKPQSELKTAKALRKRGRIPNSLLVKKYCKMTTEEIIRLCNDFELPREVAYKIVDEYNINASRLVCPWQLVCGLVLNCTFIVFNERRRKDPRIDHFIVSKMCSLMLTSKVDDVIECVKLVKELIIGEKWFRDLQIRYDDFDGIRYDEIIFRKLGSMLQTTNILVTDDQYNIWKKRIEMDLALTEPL

The next assay addresses T4, Mcm6 (Saccharomyces cerevisiae, UniProt P53091 1-1017).
T4 construct: Mcm6, S. cerevisiae; Subunit of m4 and m7, written alone for the contacts seen in the structures; also called Mcm6 subunit of MCM; source: S. cerevisiae strains yGC216 and yGC226, purified as a subunit of MCM-Cdt1

T4 sequence (P53091 whole entry): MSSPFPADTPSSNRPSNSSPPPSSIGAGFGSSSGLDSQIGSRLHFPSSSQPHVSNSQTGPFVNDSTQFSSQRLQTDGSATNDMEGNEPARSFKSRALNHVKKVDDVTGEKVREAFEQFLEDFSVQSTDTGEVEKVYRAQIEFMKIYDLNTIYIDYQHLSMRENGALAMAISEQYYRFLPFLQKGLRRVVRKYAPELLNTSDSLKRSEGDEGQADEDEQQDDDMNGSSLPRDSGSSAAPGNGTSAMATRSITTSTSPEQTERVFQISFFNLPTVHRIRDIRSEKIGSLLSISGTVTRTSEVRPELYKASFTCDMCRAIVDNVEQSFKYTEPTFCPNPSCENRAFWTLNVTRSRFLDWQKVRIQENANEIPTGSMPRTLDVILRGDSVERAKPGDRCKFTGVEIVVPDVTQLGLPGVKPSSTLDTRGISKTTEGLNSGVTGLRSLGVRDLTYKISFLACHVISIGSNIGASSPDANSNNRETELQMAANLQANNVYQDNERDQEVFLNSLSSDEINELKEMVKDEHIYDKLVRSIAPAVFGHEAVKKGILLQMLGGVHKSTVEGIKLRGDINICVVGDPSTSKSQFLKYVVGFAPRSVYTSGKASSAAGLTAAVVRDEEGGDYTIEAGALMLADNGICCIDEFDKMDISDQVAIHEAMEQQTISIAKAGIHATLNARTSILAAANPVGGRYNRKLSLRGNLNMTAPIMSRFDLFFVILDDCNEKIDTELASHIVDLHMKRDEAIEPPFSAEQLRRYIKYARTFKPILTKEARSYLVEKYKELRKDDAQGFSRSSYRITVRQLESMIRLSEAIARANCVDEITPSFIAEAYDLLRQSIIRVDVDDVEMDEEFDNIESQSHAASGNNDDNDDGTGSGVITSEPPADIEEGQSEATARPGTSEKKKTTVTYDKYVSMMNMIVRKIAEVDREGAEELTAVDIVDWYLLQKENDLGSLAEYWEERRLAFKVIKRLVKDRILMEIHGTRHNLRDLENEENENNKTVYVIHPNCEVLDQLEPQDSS

B1: Orc5 (natural protein, Saccharomyces cerevisiae)
chain: MNVTTPEVAFREYQTNCLASYISADPDITPSNLILQGYSGTGKTYTLKKYFNANPNLHAVWLEPVELVSWKPLLQAIARTVQYKLKTLYPNIPTTDYDPLQVEEPFLLVKTLHNIFVQYESLQEKTCLFLILDGFDSLQDLDAALFNKYIKLNELLPKDSKINIKFIYTMLETSFLQRYSTHCIPTVMFPRYNVDEVSTILVMSRCGELMEDSCLRKRIIEEQITDCTDDQFQNVAANFIHLIVQAFHSYTGNDIFALNDLIDFKWPKYVSRITKENIFEPLALYKSAIKLFLSTDDNLSENGQGESAITTNRDDLENSQTYDLSIISKYLLIASYICSYLEPRYDASIFSRKTRIIQGRAAYGRRKKKEVNPRYLQPSLFAIERLLAIFQAIFPIQGKAESGSLSALREESLMKANIEVFQNLSELHTLKLIATTMNKNIDYLSPKVRWKVNVPWEIIKEISESVHFNISDYFSDIHE
notes: Orc5, S. cerevisiae; Subunit of m1, written alone for the contacts seen in the structures; also called Orc5 subunit of ORC; source: S. cerevisiae strain ySD-ORC, purified as a subunit of ORC
As to B1, the binding result in the assay with Orc3 and in the assay with Orc4 was “binds” in each case.

As for B2, the binding result with Orc1 was “binds”.

B3: Saccharomyces cerevisiae Cdc6 (natural protein, UniProt P09119 1-513, looked up)
chain: MSAIPITPTKRIRRNLFDDAPATPPRPLKRKKLQFTDVTPESSPEKLQFGSQSIFLRTKALLQKSSELVNLNSSDGALPARTAEYEQVMNFLAKAISEHRSDSLYITGPPGTGKTAQLDMIIRQKFQSLPLSLSTPRSKDVLRHTNPNLQNLSWFELPDGRLESVAVTSINCISLGEPSSIFQKIFDSFQDLNGPTLQIKNMQHLQKFLEPYHKKTTFVVVLDEMDRLLHANTSETQSVRTILELFLLAKLPTVSFVLIGMANSLDMKDRFLSRLNLDRGLLPQTIVFQPYTAEQMYEIVIQKMSSLPTIIFQPMAIKFAAKKCAGNTGDLRKLFDVLRGSIEIYELEKRFLLSPTRGSLNSAQVPLTPTTSPVKKSYPEPQGKIGLNYIAKVFSKFVNNNSTRTRIAKLNIQQKLILCTIIQSLKLNSDATIDESFDHYIKAITKTDTLAPLQRNEFLEICTILETCGLVSIKKTKCKGKTKRFVDKIDVDLDMREFYDEMTKISILKPFLH
notes: Cdc6, S. cerevisiae; source: E. coli BL21(CodonPlus)-RIL, plasmid pAM3, purified (glutathione sepharose, preScission protease, hydroxyapatite)
Take B3: the binding result (in assay [1]; with Orc1) was “binds” each time.

B4: Mcm2 R676A (natural protein, Saccharomyces cerevisiae)
chain: MSDNRRRRREEDDSDSENELPPSSPQQHFRGGMNPVSSPIGSPDMINPEGDDNEVDDVPDIDEVEEQMNEVDLMDDNMYEDYAADHNRDRYDPDQVDDREQQELSLSERRRIDAQLNERDRLLRNVAYIDDEDEEQEGAAQLDEMGLPVQRRRRRRQYEDLENSDDDLLSDMDIDPLREELTLESLSNVKANSYSEWITQPNVSRTIARELKSFLLEYTDETGRSVYGARIRTLGEMNSESLEVNYRHLAESKAILALFLAKCPEEMLKIFDLVAMEATELHYPDYARIHSEIHVRISDFPTIYSLRELRESNLSSLVRVTGVVTRRTGVFPQLKYVKFNCLKCGSILGPFFQDSNEEIRISFCTNCKSKGPFRVNGEKTVYRNYQRVTLQEAPGTVPPGRLPRHREVILLADLVDVSKPGEEVEVTGIYKNNYDGNLNAKNGFPVFATIIEANSIKRREGNTANEGEEGLDVFSWTEEEEREFRKISRDRGIIDKIISSMAPSIYGHRDIKTAVACSLFGGVPKNVNGKHSIRGDINVLLLGDPGTAKSQILKYVEKTAHRAVFATGQGASAVGLTASVRKDPITKEWTLEGGALVLADKGVCLIDEFDKMNDQDRTSIHEAMEQQSISISKAGIVTTLQARCSIIAAANPNGGRYNSTLPLAQNVSLTEPILSAFDILCVVRDLVDEEADERLATFVVDSHVRSHPENDEDREGEELKNNGESAIEQGEDEINEQLNARQRRLQRQRKKEEEISPIPQELLMKYIHYARTKIYPKLHQMDMDKVSRVYADLRRESISTGSFPITVRHLESILRIAESFAKMRLSEFVSSYDLDRAIKVVVDSFVDAQKVSVRRQLRRSFAIYTLGH
notes: Mcm2, S. cerevisiae; Subunit of m4, written alone for the contacts seen in OCCM^Mcm2RA; also called Mcm2RA; source: S. cerevisiae strain yGC216, purified as a subunit of MCM-Cdt1
Turning to B4, the binding result with Mcm6 is “binds”.
